Conditions: Bos taurus, pH 7, Absorbance, phosphate 0.1 M, reversible: yes, whole UniProt chain shown

B1: Cytochrome b5 wild type, P00171 (protein)
chain: MAEESSKAVKYYTLEEIQKHNNSKSTWLILHYKVYDLTKFLEEHPGGEEVLREQAGGDATENFEDVGHSTDARELSKTFIIGELHPDDRSKITKPSESIITTIDSNPSWWTNWLIPAISALFVALIYHLYTSEN
30 °C, Urea
  denaturant midpoint (higher = more stable): 7.1 M
Thermal
  Tm: 66.2 °C
  unfolding enthalpy (van 't Hoff): 71.3 kcal/mol
